The numbers were not newly measured in US5814460A, “Method for generating and screening useful peptides” (Diatide, Inc., priority 1995, dated 1998), which cites them from elsewhere.

Where two headings read alike, the source gives them in different places.

In data set [1] the target is Urokinase Receptor (hum.) (Homo sapiens, UniProt Q03405). As to conditions: Table 6.
Data set [2] deals with Calmodulin (Homo sapiens, UniProt P0DP23). As to conditions: Table 6.
The target of data set [3] is Angiotensin II Receptor. As to conditions: Table 6.
Data set [4] concerns the target human fibrinogen (Homo sapiens, UniProt P02679). As to conditions: read-out: affinities for human fibrinogen.
In data set [5] the target is fibrin polymerization (Homo sapiens, UniProt P02679). To be noted: literature statement.
fibrin polymerization, sequence (P02671 20-629 partner limits assumed): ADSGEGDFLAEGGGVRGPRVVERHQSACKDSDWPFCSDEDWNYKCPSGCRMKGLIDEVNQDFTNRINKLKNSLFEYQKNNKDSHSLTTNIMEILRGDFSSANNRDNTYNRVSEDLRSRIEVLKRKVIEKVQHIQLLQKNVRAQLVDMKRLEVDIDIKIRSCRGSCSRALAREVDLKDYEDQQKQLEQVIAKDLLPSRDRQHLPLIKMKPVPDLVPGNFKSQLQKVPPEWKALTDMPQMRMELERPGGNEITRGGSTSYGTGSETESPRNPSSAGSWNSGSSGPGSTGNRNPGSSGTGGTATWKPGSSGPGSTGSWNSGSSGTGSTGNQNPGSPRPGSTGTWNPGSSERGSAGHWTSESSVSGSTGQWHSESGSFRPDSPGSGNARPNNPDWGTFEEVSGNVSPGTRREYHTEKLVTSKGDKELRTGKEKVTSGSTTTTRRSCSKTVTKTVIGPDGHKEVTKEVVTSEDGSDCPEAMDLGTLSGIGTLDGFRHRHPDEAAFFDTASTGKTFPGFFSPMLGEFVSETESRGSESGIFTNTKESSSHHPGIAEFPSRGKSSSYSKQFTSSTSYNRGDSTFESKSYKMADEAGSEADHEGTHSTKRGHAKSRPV
fibrin polymerization, sequence (P02675 31-491 partner): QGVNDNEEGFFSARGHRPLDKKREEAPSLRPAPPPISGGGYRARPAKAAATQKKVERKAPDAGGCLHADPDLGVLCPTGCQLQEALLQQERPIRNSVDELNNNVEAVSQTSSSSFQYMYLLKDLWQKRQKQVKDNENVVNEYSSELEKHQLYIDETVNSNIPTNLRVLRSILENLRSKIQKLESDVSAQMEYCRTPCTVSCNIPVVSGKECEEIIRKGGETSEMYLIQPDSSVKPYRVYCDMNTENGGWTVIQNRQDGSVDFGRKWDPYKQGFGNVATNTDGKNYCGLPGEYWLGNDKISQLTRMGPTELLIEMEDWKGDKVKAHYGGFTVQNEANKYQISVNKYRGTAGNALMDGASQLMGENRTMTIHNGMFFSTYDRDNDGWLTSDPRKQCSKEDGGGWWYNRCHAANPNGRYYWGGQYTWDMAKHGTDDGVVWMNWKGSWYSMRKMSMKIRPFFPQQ
fibrin polymerization, sequence (P02679 27-433 limits assumed): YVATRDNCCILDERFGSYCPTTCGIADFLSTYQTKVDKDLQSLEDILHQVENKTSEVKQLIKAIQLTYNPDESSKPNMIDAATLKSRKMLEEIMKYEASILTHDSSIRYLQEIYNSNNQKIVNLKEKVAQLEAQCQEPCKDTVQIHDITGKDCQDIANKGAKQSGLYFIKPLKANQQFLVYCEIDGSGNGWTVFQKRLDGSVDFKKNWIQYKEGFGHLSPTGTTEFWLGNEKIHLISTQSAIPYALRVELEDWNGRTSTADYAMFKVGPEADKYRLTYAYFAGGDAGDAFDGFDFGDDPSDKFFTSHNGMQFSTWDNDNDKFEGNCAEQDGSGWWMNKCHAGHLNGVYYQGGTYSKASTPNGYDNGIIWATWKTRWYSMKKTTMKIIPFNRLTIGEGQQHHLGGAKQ
In data set [6] the target is T1, Gastricsin (hum.) (Homo sapiens, UniProt P20142).
T1 sequence (P20142 60-388): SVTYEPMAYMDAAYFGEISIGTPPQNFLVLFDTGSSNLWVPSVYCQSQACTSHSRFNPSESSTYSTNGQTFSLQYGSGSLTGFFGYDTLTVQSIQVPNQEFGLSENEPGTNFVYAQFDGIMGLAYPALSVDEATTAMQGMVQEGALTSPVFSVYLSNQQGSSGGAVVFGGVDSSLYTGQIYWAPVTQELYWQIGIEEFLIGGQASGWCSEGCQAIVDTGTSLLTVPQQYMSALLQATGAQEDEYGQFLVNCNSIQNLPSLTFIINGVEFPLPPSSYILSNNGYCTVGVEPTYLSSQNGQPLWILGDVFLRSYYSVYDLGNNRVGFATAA
To be noted: Table 6.

Data set [7] addresses Fibronectin (rat) (human). To be noted: Table 6.
Data set [8] has as its target Pepsin (hum.) (Homo sapiens, UniProt P0DJD7). To be noted: Table 6.
For data set [9], the target named is fibrinogen receptor (GpIIb IIIa) (Homo sapiens, UniProt P05106+P08514).
For data set [10], the target named is T2, streptavidin (Streptomyces avidinii, UniProt P22629).
T2 construct: purchased Sigma Chemical Company
T2 sequence (P22629 25-183): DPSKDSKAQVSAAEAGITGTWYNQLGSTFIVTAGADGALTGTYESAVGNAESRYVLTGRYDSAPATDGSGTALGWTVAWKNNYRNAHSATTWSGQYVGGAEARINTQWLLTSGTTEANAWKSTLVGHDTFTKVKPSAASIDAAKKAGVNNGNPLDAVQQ
As to conditions: read-out: Kd of streptavidin complex.

Data set [11] has as its target CD4 (Homo sapiens, UniProt P01730). To be noted: Table 6.
Data set [12] concerns the target Porcine PLA2 (Sus scrofa, UniProt P00592). As to conditions: Table 6.
Setting [13] is: Table 6, target GpIIb IIa, read-out: Kd.

human fibrinogen, sequence (P02671 20-629 partner limits assumed): as the sequence (P02671 20-629 partner limits assumed) above
human fibrinogen, sequence (P02675 31-491 partner): as the sequence (P02675 31-491 partner) above
human fibrinogen, sequence (P02679 27-433 limits assumed): as the sequence (P02679 27-433 limits assumed) above
Porcine PLA2, sequence (P00592 23-146): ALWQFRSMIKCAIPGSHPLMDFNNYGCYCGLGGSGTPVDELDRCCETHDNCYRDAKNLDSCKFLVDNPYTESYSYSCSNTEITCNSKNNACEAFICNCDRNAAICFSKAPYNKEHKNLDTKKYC
Fibronectin (rat) (human), sequence (P04937 1540-1633 limits assumed): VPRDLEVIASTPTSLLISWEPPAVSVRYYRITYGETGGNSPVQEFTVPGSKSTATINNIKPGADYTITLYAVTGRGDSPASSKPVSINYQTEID
Pepsin (hum.), sequence (P0DJD7 63-388): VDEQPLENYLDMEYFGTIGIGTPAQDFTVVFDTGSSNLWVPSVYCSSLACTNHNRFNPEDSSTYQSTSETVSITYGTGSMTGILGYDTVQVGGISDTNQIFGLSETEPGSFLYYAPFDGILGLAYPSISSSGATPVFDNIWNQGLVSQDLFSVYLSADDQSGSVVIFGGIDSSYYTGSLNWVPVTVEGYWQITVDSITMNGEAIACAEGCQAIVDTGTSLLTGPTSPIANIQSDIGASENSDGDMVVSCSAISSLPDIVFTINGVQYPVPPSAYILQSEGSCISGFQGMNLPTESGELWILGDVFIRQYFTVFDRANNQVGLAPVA
Urokinase Receptor (hum.), sequence (Q03405 23-335): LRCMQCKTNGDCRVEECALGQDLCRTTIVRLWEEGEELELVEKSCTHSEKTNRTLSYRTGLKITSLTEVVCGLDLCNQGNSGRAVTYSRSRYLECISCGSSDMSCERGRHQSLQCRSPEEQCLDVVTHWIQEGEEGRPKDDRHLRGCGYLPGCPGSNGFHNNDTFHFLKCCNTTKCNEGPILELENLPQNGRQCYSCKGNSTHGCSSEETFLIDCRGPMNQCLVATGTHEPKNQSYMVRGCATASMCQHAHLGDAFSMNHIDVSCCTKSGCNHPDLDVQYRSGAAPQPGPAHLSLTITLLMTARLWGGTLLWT

For the compound “TCVXNKYFSNIHW: lead peptide (urokinase) for urokinase receptor”, the Kd in data set [1] is 1000 nM.

In the case of VAITVLVK, the Kd in [2] is 1000 nM.

EGVYVHPV: the Kd in [3] is 100 nM.

For “GPRV: synthetic peptide beginning with GPR that binds fibrinogen”, in data set [4], the Kd is 100 µM. Moreover, the “inhibition of fibrin polymerization” value in [5] was “inhibit fibrin polymerization”.

Turning to GPRP, in data set [5], the “inhibition of fibrin polymerization” value is on record as “inhibit fibrin polymerization”.

Take TTFKRIFLKRMPS: the Kd in [6] is 1000 nM.

As for “WTVPTA: lead peptide, antisense of GAVSTA RGD sequence, for fibronectin”, in data set [7], the Kd is 1000 nM.

With Gly-Pro-Arg [GPR], the Kd in data set [4] is 50 µM. For the same compound, in data set [5], the “inhibition of fibrin polymerization” value is “inhibit fibrin polymerization”.

For the compound RIFLKRMPSIR, the Kd in data set [8] was 1000 nM.

Consider “GRGDSP: lead peptide (Fb) for GpIIb IIIa”, for which, in data set [9] (setting [13]), the Kd was 1000 nM.

On to “RGDY: RGD containing peptide binding GpIIb IIIa”, for which the Kd in [9] (setting [13]) was 1000 nM.

In the case of `N=C1N[C@H]2[C@H](CS[C@H]2CCCCC(=O)O)N1` [imminobiotin], the Kd in data set [10] was ~10 nM.

Take TNYT: lead peptide for CD4: the Kd in data set [11] was 1000 nM.

Turning to Arg-Gly-Asp-Trp (RGDW), the Kd in [9] (setting [13]) is 1000 nM; in [9] (example of a lead peptide, read-out: affinity (Kd) for fibrinogen receptor), 5000 nM.

With MLFILIKRSRHF, the Kd in [12] is 10 µM.
